According to patent US20220025032A1 (Novartis, published 2022):
Positions count from the first letter of the chain named.

Columns and labels:
Human BTC [1] = biological target: T1, Human BTC (human, UniProt P35070 32-111); test: cell-based or functional assay
T1 sequence: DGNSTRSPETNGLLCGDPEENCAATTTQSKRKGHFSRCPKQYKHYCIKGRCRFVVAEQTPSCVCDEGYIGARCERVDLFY

[2] = biological target: T2, membrane-bound human BTC on 293F-hBTC cells (human, UniProt P35070 32-111); test: cell-based or functional assay
T2 sequence: T1 sequence

Human BTC [3] = biological target: T1, Human BTC; test: MSD-based inhibition of BTC binding to ErbB4
Human BTC [4] = biological target: T1, Human BTC; test: MSD-based inhibition of BTC binding to ErbB1
Human BTC [5] = biological target: T1, Human BTC; test: inhibition of BTC binding to ErbB4; y axis MSD units, x axis Antibody concentration (pM); blocked partner ErbB4
Human BTC [6] = biological target: T1, Human BTC; test: SPR Biacore T200, anti-Fab capture, antigen as analyte
[7] = biological target: T2, membrane-bound human BTC on 293F-hBTC …; test: flow cytometry on 293F cells with membrane-bound human BTC, anti-human Fab detection; y axis Percent Positive Binding, x axis Antibody concentration (nM)
Method: After washing the cells, the cells were dissociated using Versene at 37° C. The cells were washed with FACS buffer and plated at 100 μl in a 96 well plate using cells at 1×10⁶ cells/ml. Then 100 μl of a serial dilution of antibodies starting at 50 nM was used. The cells were incubated, washed and then treated with the secondary anti-human Fab-FITC antibody. The antibodies only bound to the cells expressing BTC. After which the cells were washed and analyzed on the Attune Flow Cytometry. All data analysis was carried out using Flow Jo software.
In FIG. 6A, Flow cytometry was used to assess the binding of NVS11 to membrane-bound BTC using an anti-human Fab antibody for detection.

[8] = biological target: T2, membrane-bound human BTC on 293F-hBTC …; test: flow cytometry, 293F cells with BTC against 293F
Human BTC [9] = biological target: T1, Human BTC; test: cell-based inhibition of BTC binding to ErbB1
Mouse BTC = biological target: T3, Mouse BTC (mouse, UniProt Q05928 32-111, limits assumed); test: SPR (Biacore/ProteOn)
T3 sequence (looked up): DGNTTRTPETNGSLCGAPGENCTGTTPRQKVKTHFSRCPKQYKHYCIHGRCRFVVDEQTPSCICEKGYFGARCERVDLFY

Human BTC [10] = biological target: T1, Human BTC; test: SPR (Biacore/ProteOn)
Rat BTC = biological target: T4, Rat BTC (rat, UniProt Q9JJM4 32-111); test: SPR (Biacore/ProteOn)
T4 sequence: T3 sequence (looked up) with V31S, V55M, R75Q

Cyno BTC = biological target: T5, Cyno BTC (cynomolgus, UniProt A0A2K5X5E5 32-111); test: SPR (Biacore/ProteOn)
T5 construct: also called cynomolgus BTC
T5 sequence: T1 sequence with E19D, A56T

Rabbit BTC = biological target: T6, Rabbit BTC (rabbit, UniProt G1SJ89 32-111); test: SPR (Biacore/ProteOn)
T6 sequence: T1 sequence with D1S, L14S, D17Y, E19G, A23T, T27V, S29P, V63I, I69T

Human BTC-avitag-biotin = biological target: T7, Human BTC-avitag-biotin (human, UniProt P35070 32-111, biotin on the avitag); test: flow cytometry, BTC-ErbB4 Cell Binding Inhibition: antibody pre-incubated with 15 nM human BTC-avitag-biotin, HKB11 cells over-expressing human ErbB4; y axis Percent Inhibition
T7 construct: also called biotin-BTC; soluble human BTC-avitag-biotin
T7 sequence: T1 sequence
Method: HKB11 over-expressing either ErbB1 or ErbB4 cells were plated 1×10⁵ cells/well. Cells were washed once with FACS buffer by spun down at 1200 rpm for 5 minutes and supernatant removed. Next, the Fab sample dilutions and BTC were prepared in FACS buffer. Human BTC-avitag-biotin was diluted to a fixed concentration of 15 nM. The test Fab samples were prepared at a starting concentration of 40 nM and titrated for 9 points at a serial dilution of 1:2. Both biotin-BTC and the test Fab samples are incubated for 30 minutes at room temperature. The pre-incubated samples were then added to the cell plate at 100 μl per well in duplicate and incubated for 1 hour on ice. The plate was then washed once in FACS buffer and spun down at 1200 rpm for 5 minutes and supernatant removed. […]
Measurements were performed on Attune Flow Cytometry machine. Data were analysed using the Flow Jo software. The live cell populations analysed were gated in forward and side scattering (FSC-A/SSC-A dot plot). The interval gate was established on the control histogram, which was obtained with sample incubated in streptavidin-Alexa Fluor488 only, and subsequently, determined percent of positive binding events of cells carrying membrane-bound receptor ErbB1 or ErbB4 and biotin-BTC. The median of fluorescence intensity (MFI) value was also derived for the live cell population. […]

Human BTC [11] = biological target: T1, Human BTC; test: inhibition of BTC binding to ErbB1; y axis MSD units, x axis Fab (pM); blocked partner ErbB1

B1: NVS1 (Fab, V domains shown)
VH: QVQLVQSGAEVKKPGSSVKVSCKASGGTFSSYAISWVRQAPGQGLEWMGGIVPWMGEAVYAQKFQGRVTITADESTSTAYMELSSLRSEDTAVYYCARSSSTYGIHAFDYWGQGTLVTVSS
VL: DIQMTQSPSSLSASVGDRVTITCRASQSISNFLNWYQQKPGKAPKLLIYAASNLQSGVPSRFSGSGSGTDFTLTISSLQPEDFATYYCQQYDDFPMTFGQGTKVEIKR
notes: also called Fab NVS1; NVS1 Fab
**Q.** What does the source list for B1?
**A.** A431 pERK (IC50 in nM) (Human BTC [1]): 0.25 nM; ADR/Res pErbB3 (IC50 in nM) (Human BTC [1]): 5.7 nM; inhibition (Human BTC [1]): 99.7%; Neutralization of juxtacrine signaling [2]: 89%; MSD-based binding inhibition BTC/ErbB4 (Human BTC [3]): > 90%; MSD-based binding inhibition BTC/ErbB1 (Human BTC [4]): > 90%; IC50 (Human BTC [5]): 0.591 nM; Kd (Human BTC [6]): 1.7 pM; EC50 [7]: 0.133 nM; Binding to membrane-anchored BTC (median, X above 293F) [8]: > 10 X above 293F; Cell-based binding inhibition BTC/ErbB1 (Human BTC [9]): > 90%; Kd (Mouse BTC): 4 pM; Kd (Human BTC [10]): 6 pM; Kd (Rat BTC): 7 pM; Kd (Cyno BTC): 8 pM; Kd (Rabbit BTC): 4 pM; IC50 (Human BTC-avitag-biotin): 7.4 nM; IC50 (Human BTC [11]): 0.301 nM
